The results in this text go back to the supplement of paper PMC10567573.

Sequences and labels used below:
B1: PSD2 (parent)
chain: LTHFSRRYCQCNPDDSTSEDGIHT
B2: ANKRD17 (parent)
chain: EVLRRLTSSVSCALDEAAAALTRM
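Note: lentivirally expressed fusions sorted by FACS into six bins by GFP to DsRed ratio, PSI derived from sequencing read proportions per bin multiplied by bin number.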

In the first data set the parent is B1. As to the kind of experiment: protein stability index of a GFP-peptide fusion (GPS, HEK-293T) (PSI 1-6); higher = more stable. The conditions noted are these: c terminus: a fixed tail appended.
LTMFSRRYCQCNPDDSTSEDGIHT [H3M]: the protein stability index is 2.62.

Turning to LTCFSRRYCQCNPDDSTSEDGIHT [H3C], the protein stability index was 2.73.

With LTSFSRRYCQCNPDDSTSEDGIHT [H3S], the protein stability index is 3.29.

With LTKFSRRYCQCNPDDSTSEDGIHT [H3K], the protein stability index stood at 3.52.

For the variant LTNFSRRYCQCNPDDSTSEDGIHT [H3N], the protein stability index amounted to 3.55.

As to LTDFSRRYCQCNPDDSTSEDGIHT [H3D], the protein stability index amounted to 4.38.

Consider LTLFSRRYCQCNPDDSTSEDGIHT [H3L], for which the protein stability index is 2.96.

Regarding LTEFSRRYCQCNPDDSTSEDGIHT [H3E], the protein stability index stood at 3.61.

With LTFFSRRYCQCNPDDSTSEDGIHT [H3F], the protein stability index is 2.16.

As to LTIFSRRYCQCNPDDSTSEDGIHT [H3I], the protein stability index amounted to 2.83.

In the case of LTGFSRRYCQCNPDDSTSEDGIHT [H3G], the protein stability index is 2.92.

Regarding LTTFSRRYCQCNPDDSTSEDGIHT [H3T], the protein stability index is 3.28.

In the case of LTQFSRRYCQCNPDDSTSEDGIHT [H3Q], the protein stability index came out at 3.47.

LTPFSRRYCQCNPDDSTSEDGIHT [H3P]: the protein stability index was 3.03.

With LTRFSRRYCQCNPDDSTSEDGIHT [H3R], the protein stability index came out at 3.62.

Turning to LTAFSRRYCQCNPDDSTSEDGIHT [H3A], the protein stability index came out at 3.54.

For LTWFSRRYCQCNPDDSTSEDGIHT [H3W], the protein stability index turned out to be 2.16.

Turning to LTVFSRRYCQCNPDDSTSEDGIHT [H3V], the protein stability index came out at 3.69.

With LTYFSRRYCQCNPDDSTSEDGIHT [H3Y], the protein stability index is 3.13.

For LTHLSRRYCQCNPDDSTSEDGIHT [F4L], the protein stability index turned out to be 3.5.

As to LTHNSRRYCQCNPDDSTSEDGIHT [F4N], the protein stability index worked out at 4.51.

In the case of LTHRSRRYCQCNPDDSTSEDGIHT [F4R], the protein stability index was found to be 3.33.

In the case of LTHASRRYCQCNPDDSTSEDGIHT [F4A], the protein stability index is 4.42.

For LTHDSRRYCQCNPDDSTSEDGIHT [F4D], the protein stability index was determined as 3.57.

LTHCSRRYCQCNPDDSTSEDGIHT [F4C]: the protein stability index was found to be 3.38.

Take LTHSSRRYCQCNPDDSTSEDGIHT [F4S]: the protein stability index is 3.61.

For LTHHSRRYCQCNPDDSTSEDGIHT [F4H], the protein stability index is 4.51.

Consider LTHGSRRYCQCNPDDSTSEDGIHT [F4G], for which the protein stability index turned out to be 4.57.

In the case of LTHESRRYCQCNPDDSTSEDGIHT [F4E], the protein stability index is 4.55.

On to LTHPSRRYCQCNPDDSTSEDGIHT [F4P], for which the protein stability index stood at 4.18.

Take LTHISRRYCQCNPDDSTSEDGIHT [F4I]: the protein stability index was 3.17.

As to LTHQSRRYCQCNPDDSTSEDGIHT [F4Q], the protein stability index came out at 3.73.

Turning to LTHMSRRYCQCNPDDSTSEDGIHT [F4M], the protein stability index was 3.49.

Take STHFSRRYCQCNPDDSTSEDGIHT [L1S]: the protein stability index turned out to be 3.7.

Regarding HTHFSRRYCQCNPDDSTSEDGIHT [L1H], the protein stability index is 3.66.

For the variant ITHFSRRYCQCNPDDSTSEDGIHT [L1I], the protein stability index amounted to 3.69.

For MTHFSRRYCQCNPDDSTSEDGIHT [L1M], the protein stability index is 3.16.

KTHFSRRYCQCNPDDSTSEDGIHT [L1K]: the protein stability index is 3.49.

Regarding QTHFSRRYCQCNPDDSTSEDGIHT [L1Q], the protein stability index was determined as 3.53.

For CTHFSRRYCQCNPDDSTSEDGIHT [L1C], the protein stability index worked out at 3.89.

As to ATHFSRRYCQCNPDDSTSEDGIHT [L1A], the protein stability index turned out to be 3.56.

In the case of NTHFSRRYCQCNPDDSTSEDGIHT [L1N], the protein stability index stood at 3.75.

For GTHFSRRYCQCNPDDSTSEDGIHT [L1G], the protein stability index came out at 3.79.

With PTHFSRRYCQCNPDDSTSEDGIHT [L1P], the protein stability index is 3.96.

For the variant TTHFSRRYCQCNPDDSTSEDGIHT [L1T], the protein stability index came to 3.75.

As for WTHFSRRYCQCNPDDSTSEDGIHT [L1W], the protein stability index worked out at 3.36.

VTHFSRRYCQCNPDDSTSEDGIHT [L1V]: the protein stability index turned out to be 3.77.

Take ETHFSRRYCQCNPDDSTSEDGIHT [L1E]: the protein stability index was 3.17.

Turning to FTHFSRRYCQCNPDDSTSEDGIHT [L1F], the protein stability index was determined as 2.72.

DTHFSRRYCQCNPDDSTSEDGIHT [L1D]: the protein stability index was found to be 4.21.

Regarding YTHFSRRYCQCNPDDSTSEDGIHT [L1Y], the protein stability index is 1.62.

LSHFSRRYCQCNPDDSTSEDGIHT [T2S]: the protein stability index worked out at 3.23.

As for LMHFSRRYCQCNPDDSTSEDGIHT [T2M], the protein stability index was determined as 2.86.

For LEHFSRRYCQCNPDDSTSEDGIHT [T2E], the protein stability index is 4.41.

In the case of LVHFSRRYCQCNPDDSTSEDGIHT [T2V], the protein stability index amounted to 2.24.

As for LNHFSRRYCQCNPDDSTSEDGIHT [T2N], the protein stability index came out at 3.74.

For LDHFSRRYCQCNPDDSTSEDGIHT [T2D], the protein stability index is 4.29.

LIHFSRRYCQCNPDDSTSEDGIHT [T2I]: the protein stability index was 3.01.

For LKHFSRRYCQCNPDDSTSEDGIHT [T2K], the protein stability index was 2.47.

Turning to LLHFSRRYCQCNPDDSTSEDGIHT [T2L], the protein stability index came to 2.41.

For the variant LFHFSRRYCQCNPDDSTSEDGIHT [T2F], the protein stability index came out at 2.63.

Take LHHFSRRYCQCNPDDSTSEDGIHT [T2H]: the protein stability index turned out to be 3.9.

Take LYHFSRRYCQCNPDDSTSEDGIHT [T2Y]: the protein stability index worked out at 2.79.

Take LPHFSRRYCQCNPDDSTSEDGIHT [T2P]: the protein stability index was found to be 3.26.

Regarding LQHFSRRYCQCNPDDSTSEDGIHT [T2Q], the protein stability index turned out to be 2.87.

In the case of LCHFSRRYCQCNPDDSTSEDGIHT [T2C], the protein stability index stood at 2.51.

For LWHFSRRYCQCNPDDSTSEDGIHT [T2W], the protein stability index turned out to be 2.28.

In the case of LGHFSRRYCQCNPDDSTSEDGIHT [T2G], the protein stability index was 3.67.

On to LAHFSRRYCQCNPDDSTSEDGIHT [T2A], for which the protein stability index was 3.18.

As to LRHFSRRYCQCNPDDSTSEDGIHT [T2R], the protein stability index turned out to be 2.63.

Variants of B2 are the subject of the next data set. Described as above. To be noted: c terminus: a fixed tail appended.
For the variant EVLRRLTSSVSCALDEAAAALTNM [R23N], the protein stability index stood at 1.35.

For EVLRRLTSSVSCALDEAAAALTHM [R23H], the protein stability index is 1.95.

Consider EVLRRLTSSVSCALDEAAAALTIM [R23I], for which the protein stability index was determined as 1.92.

EVLRRLTSSVSCALDEAAAALTPM [R23P]: the protein stability index was found to be 2.15.

With EVLRRLTSSVSCALDEAAAALTVM [R23V], the protein stability index was determined as 1.02.

As for EVLRRLTSSVSCALDEAAAALTQM [R23Q], the protein stability index was 1.74.

Consider EVLRRLTSSVSCALDEAAAALTWM [R23W], for which the protein stability index was found to be 3.5.

Turning to EVLRRLTSSVSCALDEAAAALTKM [R23K], the protein stability index is 1.21.

In the case of EVLRRLTSSVSCALDEAAAALTMM [R23M], the protein stability index stood at 1.59.

For the variant EVLRRLTSSVSCALDEAAAALTSM [R23S], the protein stability index is 1.93.

For the variant EVLRRLTSSVSCALDEAAAALTRQ [M24Q], the protein stability index amounted to 2.2.

As for EVLRRLTSSVSCALDEAAAALTRF [M24F], the protein stability index was determined as 2.44.

In the case of EVLRRLTSSVSCALDEAAAALTRD [M24D], the protein stability index was 1.43.

For EVLRRLTSSVSCALDEAAAALTRH [M24H], the protein stability index amounted to 2.49.

Turning to EVLRRLTSSVSCALDEAAAALTRI [M24I], the protein stability index was found to be 2.08.

For the variant EVLRRLTSSVSCALDEAAAALTRL [M24L], the protein stability index came out at 2.81.

Consider EVLRRLTSSVSCALDEAAAALTRS [M24S], for which the protein stability index is 2.42.

Turning to EVLRRLTSSVSCALDEAAAALTRT [M24T], the protein stability index was 3.53.

Consider EVLRRLTSSVSCALDEAAAALTRW [M24W], for which the protein stability index amounted to 3.27.

In the case of EVLRRLTSSVSCALDEAAAALTRV [M24V], the protein stability index was found to be 1.07.

Turning to EVLRRLTSSVSCALDEAAAALTRY [M24Y], the protein stability index is 1.43.

On to EVLRRLTSSVSCALDEAAAALTRN [M24N], for which the protein stability index worked out at 1.65.

Consider EVLRRLTSSVSCALDEAAAALTRC [M24C], for which the protein stability index came out at 2.33.

With EVLRRLTSSVSCALDEAAAALTRR [M24R], the protein stability index was 2.72.
